The source of these data is publication PMC4788688, “Chemical shift assignment of the alternative scaffold protein IscA” (Biomolecular Nmr Assignments, 2016).

The data set concerns the molecule itself. The experiment in a line: SEC; purified IscA in 20 mM Tris-HCl with 20 mM DTT or 5 mM TCEP; chromatograms showed no significant differences at 50, 150 or 1000 mM NaCl; self-association into dimers and higher species.

B1: E. coli IscA protein (cluster-free) (natural protein)
chain: MSITLSDSAAARVNTFLANRGKGFGLRLGVRTSGCSGMAYVLEFVDEPTPEDIVFEDKGVKVVVDGKSLQFLDGTQLDFVKEGLNEGFKFTNPNVKDECGCGESFHV
notes: IscA of E. coli, recombinant, printed length 107 residues (11.5 kDa); cluster-free; 15N- or 13C/15N-labelled for NMR; also called alternative scaffold protein IscA; source: E. coli BL21 (DE3), pETM30 vector, purified (DEAE and Q anion exchange, Superdex 75 size exclusion)
As to B1, the binding result is listed as “binds”.
